In general, stoichiometry N refers to the number of molecules, sites or subunits per partner or assembly.

For two substances, stoichiometry N results are on record in PMC7293229.

One experiment has as its target GxtA. Put plainly: crystal structure; GxtA crystallised anaerobically, hanging drop, 0.3 M MgCl2, 0.1 M Bis-Tris pH 5.5, 25% PEG3350, 15% glycerol, 20 °C; without and with 20 mM ddSTX; three molecules in the asymmetric unit.
Another experiment deals with SxtT. Put plainly: crystal structure; SxtT crystallised anaerobically, hanging drop, 2.0 M (NH4)2SO4, 0.1 M Bis-Tris pH 6.5, 10% glycerol, 20 °C; without and with 20 mM ddSTX; three molecules in the asymmetric unit.

In turn, GxtA (enzyme) showed a stoichiometry N with GxtA of 3. Substance SxtT (enzyme) yielded a stoichiometry N in the experiment with SxtT of 3.
